assay: soluble on expression in E. coli; label from the status in PepcDB or PDB records

Which “soluble on expression in E. coli” value does the source give for “MIRILLSNDDGISAPGIQTLASALRGFAQVQIVAPDRNRSGASNALTLDSALRITTLSNGDIAVQQGTPTDCVYLGVNALMRPRPDIVVSGINAGPNLGDDVIYSGTVAAAMEGRHLGYPALAVSLNGHQHYDTAAAVTCRLLRALQRKPLRTGKILNINVPDLPLAEIKGIRVTRCGSRHPAEQVFCQQDPRGQDLYWIGPPGEKYDAGPDTDFAAVEQGYVSITPLQVDLTAYMAQEVVESWLANTEVDGEW” here?
The value was “not soluble”.

Which “soluble on expression in E. coli” value does the source give for “MAHHHHHHMEPSTLPYITRDVATEPPTTIAIVSCGGQPPELSGKDETMFAVTEDCVEPTKGWINREGKPLLTVCFMHSFGKCVGRTSSNPATCFQIHIKANVLNALRKHYTNPTRRFFTRTVKAMLSPELRRLLCMRAHKEFKVQYLEYRVSDIFPSTGLLQYEAAYRRWLFSDDTNAEHAGTITVLQCLQFSMTGSCDSSTDCPYIHADLKKAQARDPMLARALRDVSDANQGLPTVSIRVPELLPAGHSSTICPADATYATLTDGANLQSGMPSDPARDFTKVPAFTLVYGEGESGGRCVPLQMHQRESSSSSAGGHANSTYPLSHVPFINQDDPASEMTAAKSQPTSGKNEKASVSGKSGSGWVNNSNEGAGSINNHTGSCGSGTD” here?
The value was “not soluble”.

With “MAHHHHHHMRLIESRQMHEWDNAADSSLDVDHPEDAPFGQGPERQQQRDGKSNLGDQSDYGEEARTEATWLWRFGFPRTEDEKAYVASHLWSKGLRRRVAQLTDVRRRGRPGEFVIGVPEGLQHLREQRERLERERFGGVKVFPPQNA” as the sequence, how does the “soluble on expression in E. coli” value read?
The value was “not soluble”.

Which “soluble on expression in E. coli” value does the source give for “MDDAELRAVRTLISLTTRYFAVFKNAPVIMAVIDDNGKVVDANNAAAELIGEKPSGKHLRELLPAELCEKVLSTLEKALEEEKKANLRAKVSGKLLRVQLTPISADGRKLCLLTGFSVEDELSKAAREILRLAARAGDAETVIKGMAKKFGELELFSQVKVELDGLREVVREKDGEFVYEFPLRMHRKKGRVTLESRKELSSEEIDMLAETFEDVSILISTLELESKLSAEVRRTVELINELREQLKAVTLSLEILENDGLKSIVKERLGKMLQVAERLAGE” here?
Its value is “not soluble”.

For “MPWKCYRDYNLESQILKYRTTADVIMKSMYKLEIESLKRELAEYRRGNNGSHSDCKYYDEEAREEVS”, which “soluble on expression in E. coli” value is on record?
Its value is “not soluble”.

With “MGSDKIHHHHHHMRNPIHKRLEKFESWKNITFMLCLCERMYPNFYLFCQMTEQMDKAKIYQNILNLVWEYLTVKNAKINFENQLEKLENIIPDVNNYEFFGVVPALDACEGLSELLHAIIAGETLEKAIKISQLSLQTVITLLETQQDKAFSEAELKQSEEIELELDVQWQIYRTLNAHEERDIRLILDLKNELRESRVSNIGIEIAQ” as the sequence, how does the “soluble on expression in E. coli” value read?
The value was “not soluble”.

With “MSLEENDFDAIYIGNSKSMIKDYRGFVFTMRELREKFPNAVLITDLEPFFYPLAVYLGIDAFDIRSLKIYSYEGLGFTQFSPIIWDEPKEDPVEYAKKIIRLIRIAIHEGKLRYLVENFLPTSMNAGILRIADRENIEYLEKYTPVDDKTVVFISDYSMTRPEVYRWAKRVRERFEPPKDIELLLILPCSAKKPYSRSRSHTLYRSAVKEALGEKMHRVHELIVTSPYGVVPREWEWIAKYDIVVTGHWSEREVRLAGELLADVLEKYPDIPIIAHVEGGYREAVKLAMELSGRDVIFTAKGNSTTSRESLANLTKTLKEFDVRDVDKEYRRYRFYENIRKIFDFYFGLNAGYAVLPERAQVVGSKMLRLIVDNQQTGTFQEGVISVTPWGMQRIYDELHSYWVEIDFDVRGDIFAAGVGSADEKIRPNDWVGVVRDGKVVAVGRAVLSGEEMVKAKRGVAVKVKKKAKEGHHHHHH” as the sequence, how does the “soluble on expression in E. coli” value read?
The value was “not soluble”.

With “MFERNREATMIFNIQRYSTHDGPGIRTVVFLKGCSLGCRWCQNPESRARTQDLLYDPRLCLEGCKLCAKTAPEVIERALNGLLIHREKLTPEHFTALTDCCPTQALTVCGEVKSVEEIMATVLRDKPFYDRSGGGLTLSGGEPFMQPEMATALLQASHEAGIHTAVETCLHVPWKYIAPSLPYIDLFLADLKHVADAPFKQWTDGNAARVLDNLKKLAAAGKKIIIRVPLIQGFNADETSVKAITDFAADELHVSEIHFLPYHTLGINKYHLLNLPYDAPEKPLDAPELLDFAQQYACQKGLTATLRG” as the sequence, how does the “soluble on expression in E. coli” value read?
Its value is “not soluble”.

With “MNPLVIKLGGVLLDSEEALERLFTALVTYREKHERPLVIMHGGGCLVDELMKRLALPVVKKNGLRVTPADQIDIITGALAGTANKTLLAWAVKHQINAVGLCLADGNTVTVTLLDAELGHVGKAQPGSAALVQTLLAAGYMPIISSIGITVEGQLMNVNADQAATALAATLGADLILLSDVSGILDGKGQRIAEMTAQKAEQLIAQGIITDGMVVKVNAALDAARSLGRPVDIASWRHSEQLPALFNGVPIGTRISV” as the sequence, how does the “soluble on expression in E. coli” value read?
The value was “not soluble”.

For “MAHHHHHHMLSRLSERCTIATGLEQVLRHYVWSAAWLRDAEPAAAASENIDLSGLMERAGRAAYDVFANLYTSQKHWLILVGSGNNGGDGYVIARHAREAGKIVTVLRMPHSKPLPTEAASAQHAWKAVGGTESTMSPGAPLQLPADVDLIVDGLLGTGICGPPREQYADVIRHINGLPVPRVAIDIPSGLNAETGEAAGACVKADHTATFICLKPGLLTGQAKDYVGQLHYRSLGLEDWMTAPERMRVALCRRVALDDVYEYFGIRRSALAHKGSCGKAILVGGDHGFGGAALMSAEACVTVGAGLTRVLTRPEYAAPLLTRCPEAMVTAVETDTGEQLKQQMLEAFEWASTLAVGPGLGTGAYGQAALTAALRHAELHQDKTLVLDADALNLLAGCLHGREGGAAAGARKHLPVLPNSIITPHPGEAARLLDCRVADVEKDRLAAARRLAAILGGTCLLKGPGTIVHCHSSAKTAIVDAGNAGMASGGMGDVLTGLLAGLAAQRMHDTFDTTCAGALVHGVAADMVAAEDGRGTRGIRATELIHRVPLIVNASGPSPASRQRPSGQ”, which “soluble on expression in E. coli” value is on record?
The value was “soluble”.

Which “soluble on expression in E. coli” value does the source give for “SLTNKLESNYNKIACNIFYDKYKNANEIIKALKLIDIDDNDFKKSFSIYSKKATSGNDEKIVKFLLFNIERHLSGGICDEQIATIEHILPSSLNDEKVHKLGNYILLEAKYNQQLKNKNFKEKIDIYSKSNFKLAQYVAENFKTWDTKSIDQYQNFLAKQALALWKF” here?
Its value is “soluble”.

For “MGKEERAKWVNDEYAKAYEKMKSYGEQVKKADKPRVLYLKRSDLTLQGNDNFIKESMELAGADNIAAEAKSITMEEILKLDPEIILLSDFDKFLPQDLYENRIEGQDWSSVSAVVNKRVYKTPVGIYRWDAPGVETPLMMFWLGKMLQPEILEHHHHHH”, which “soluble on expression in E. coli” value is on record?
Its value is “not soluble”.

For “MSLEKLTYAEVVNVIDGQVLGGRAGLHKTLNKFVIGAMELDAMMRYTAAGNLLIVGNRINAHRQALEAGAAVLVTGGFNTDDSIVQLADELELPILSTSYDTFTVAAMINRAIYDQLIKKEIVLVEDILTPADRTVYLSPKDKLEKWYEKNFETGHGRFPVVDDQMKIHGILTSKDIAGHDRNASIEKVMTKNPVTVIGKTSVASAAQMMVWEGIEVLPVTDGHQKLIGMISRQDVLKALQMIQKEGHHHHHH”, which “soluble on expression in E. coli” value is on record?
The value was “soluble”.

With “GLCDGHMHIESGMLTPAEFAAAVIPHGTTTMFTDPHEIANVLGLAGVRMMHDEALMQPVNIFTQMPSCAPSAPGLETTGYEITPEDVAEAMTWPGIIGLGEMMNFPGVTNADPKMLAEIAATQRAGKTVGGHYASPDLGPAFAAYVAGGPADDHEGTCEADAIARVRQGMRSMMRLGSAWYDVETQITAVTEKGLDPRNFILCTDDCHSATLVNDGHMNRVVRHAIACGCDPLIALQMATINTATHFGLERELGSTAPGRRADVILTSDLRDLPIELVIARGQVVAENGKIAVDCPHYDWPD” as the sequence, how does the “soluble on expression in E. coli” value read?
Its value is “not soluble”.

Which “soluble on expression in E. coli” value does the source give for “MRIVYCISGTCNSGGMERVLSNKANYLAAHGYEVTIVTTDQRGRRPFFALDGRIECVDLDVNYETNNGKSFFNKLVHYPFKQLKHKRRLTKVLNLIKPDITVSMFCNDVAFLPSIQDGSKKVLEVHFSRFKRLQYDRKGLWRLADKWRNRNEQRQVACFDKFVVLTHEDKDYWEGHANIEVIPNAQTFACDVPAALESKTVVAVGRYTYQKGFDMLLRAWRRVCDSIDDWQLHIVGEGEMKESLQQQILDLSLEDRVELCPATSDIQSVYREASVLVLSSRYEGFGMVLLEAQTAGVPTVSFDCKCGPSDIVADGVTGYLVPANDIPALAEKLLVLMRDETLRKQMGRNAFADASRFSEKAVMQRWTDLFENFR” here?
Its value is “not soluble”.

For “MGSSHHHHHHSSGLVPRGSHMNSILITGCNRGLGLGLVKALLNLPQPPQHLFTTCRNREQAKELEDLAKNHSNIHILEIDLRNFDAYDKLVADIEGVTKDQGLNVLFNNAGIAPKSARITAVRSQELLDTLQTNTVVPIMLAKACLPLLKKAAKANESQPMGVGRAAIINMSSILGSIQGNTDGGMYAYRTSKSALNAATKSLSVDLYPQRIMCVSLHPGWVKTDMGGSSAPLDVPTSTGQIVQTISKLGEKQNGGFVNYDGTPLAW”, which “soluble on expression in E. coli” value is on record?
Its value is “soluble”.

With “MGSDKIHHHHHHMSRTVVISQPTYLPWLGYFELIAKSDVFVFLDNVQCVKQSWHNRNRLKGNDDQLIWLTVPVKAHPLDTPLSKIQILNNPSVWRRKHLGTIQTCLGSAVYFHTIFPFIQEFINYEYEYLVDLNISLIKLFADLLGLSPNFVKASDLNPQGRRTEMLVNLCQQLDADYYYSPMGSKVYIEEEKHLFIEEDIKLNYQIWEHPCYSQRGKIFVSHLSILDTLMNIGLEATRSLIIPNKLKDI” as the sequence, how does the “soluble on expression in E. coli” value read?
The value was “not soluble”.

With “MTDKQAIREQMWQEMTEKKVGRFPFPLKGRIPNFKGAEQATRHLIQLEAYKQAKVVKVNPDSPQLPLRAQVLMDGKTLLVPTPRLKDGFILVKPEWVPEGEERKAVSLRNILSYGKVISLTEMPEIDLIVMGSVAVDRSGRRIGKGEGYADREYAIIRELGNRPVPVVTTVHQVQLVDVELPRDAYDVTVDWIATTEGLMQSVGAIEKPTGIVWSEVTEEELEAMPVLREIRELTKRQLEHHHHHH” as the sequence, how does the “soluble on expression in E. coli” value read?
Its value is “soluble”.

Which “soluble on expression in E. coli” value does the source give for “MPIIRPEELPKLMRTISMSNLSIPTRCLLEWQLLTLIRPAEASATAWSEIDIENKQWCIPAERMKAKRDHIVPLSEQALELLEIMRPISGNRQYVFPSRNDPRKPMNSQTANAALKRIGYSGKLVAHGLRSIASTAMNEAGFNADVIEAALAHSDKLEHHHHHH” here?
Its value is “not soluble”.

For “MGSDKIHHHHHHMLDQNQTPLIDGIKACIARPHAAFYTPGHKRGRGIAQPLADLLGEAVFGADLTELANLDNLSAPQGVIQEAQRLAAAAFGAAQTWFLVNGSTCGVEAAIMATCRPGDKIILPRNVHSSAIAGLILSGAIPIFIHPEYDQVLDIAHSMTPEAVKAALQQHPDAKAVLAVYPTYYGVCGDLEAIAQITHQYNIPLLVDEAHGAHFTFHPELPTPALAAGADLTVQSIHKVLGAMTQASMLHIQGDRINAVRVSQALQLLQSTSPSYVLLASLDAARQQMALCGKQLMSRTLQLANEARERISQIPGLSVLQPPTMTPSSGFTTLDKTRLTITVSGLGLTGFAAEEILDEQLGVTAEFATFKHLTFIISLGNTTADIEQLVQGFTTLAETTPPAKALVNPRVNSNLEYFSEISPRDAFFADSETLSIEQARDRICAEIICPYPPGIPVIMPGEVITKPAIEYLQHIQSSGGFITGCADTSLSTLKVLVIGH”, which “soluble on expression in E. coli” value is on record?
The value was “not soluble”.

With “FLDGIDKAQEEHEKYHSNWRAMASDFNLPPVVAKEIVASCDKCQLKGEAMHGQVDCSPGIWQLDCTHLEGKVILVAVHVASGYIEAEVIPAETGQETAYFLLKLAGRWPVKTVHTDNGSNFTSTTVKAACDWAGIKQEDGIPYNPQSQGVIESMNKELKKIIGQVRDQAEHLKTAVQMAVFIHNKKRKGGIGGYSAGERIVDIIATDIQTKELQKQITKIQNFRVYYRDSRDPVWKGPAKLLWKGEGAVVIQDNSDIKVVPRRKAKIIRDYGKQMAGDDCVASRQDED” as the sequence, how does the “soluble on expression in E. coli” value read?
The value was “soluble”.

With “MSGGPVKTPFLSFIIPAYNEEQRLPSYLERVIGFFAGQSYSFEIVVVDDGSSDGTAALVKALMAQHSCLRLEALDRNRGKGFAVKTGMSAAKGQLRVFADADGATPVEEIRRLLDAREQGADIAIGSRAMRSDECIVQGRVHRKIMGTVFNGLIRALAVRGIHDSQCGFKLFTASAAEDIFPRQRITGFGFDVELLFLARRLGYVVVEVPVNWSDVEGTKVRLVRDSFRMLGEVLRIRFTNLTGGYGDIPGKTLEHHHHHH” as the sequence, how does the “soluble on expression in E. coli” value read?
The value was “not soluble”.
